Biological target: scMad1^E–scMad2 complex (S. cerevisiae) (UniProt P40957)
Assay: ITC; 20°C; 25 mM HEPES pH 7.5, 150 mM NaCl; scMad1 proteins (20 µM) in the cell; scBub1 phospho-peptides or phosphorylated scBub1_(449–530) (300 µM) injected

scMad1^E–scMad2 complex (S. cerevisiae), sequence (P40957 whole entry, chain 1 of 2): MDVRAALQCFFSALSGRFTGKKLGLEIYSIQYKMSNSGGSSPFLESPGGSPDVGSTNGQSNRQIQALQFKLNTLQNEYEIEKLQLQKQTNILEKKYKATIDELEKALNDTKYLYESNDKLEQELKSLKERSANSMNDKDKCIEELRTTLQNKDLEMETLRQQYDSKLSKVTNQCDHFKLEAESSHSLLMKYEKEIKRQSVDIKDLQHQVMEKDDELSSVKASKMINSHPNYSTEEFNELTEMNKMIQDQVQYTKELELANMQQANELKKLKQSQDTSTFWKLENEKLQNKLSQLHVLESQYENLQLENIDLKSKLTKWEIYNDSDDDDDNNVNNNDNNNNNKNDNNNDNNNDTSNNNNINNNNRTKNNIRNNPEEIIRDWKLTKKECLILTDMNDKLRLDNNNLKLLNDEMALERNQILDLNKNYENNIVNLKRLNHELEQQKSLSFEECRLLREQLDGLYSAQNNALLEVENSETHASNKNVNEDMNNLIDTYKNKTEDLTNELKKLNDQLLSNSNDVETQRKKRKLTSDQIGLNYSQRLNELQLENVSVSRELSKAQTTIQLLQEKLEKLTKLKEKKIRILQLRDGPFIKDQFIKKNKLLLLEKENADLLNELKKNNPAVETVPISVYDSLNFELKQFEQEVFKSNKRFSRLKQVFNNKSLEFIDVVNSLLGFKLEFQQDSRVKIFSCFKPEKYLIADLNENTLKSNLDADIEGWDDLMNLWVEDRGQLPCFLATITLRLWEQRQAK
scMad1^E–scMad2 complex (S. cerevisiae), sequence (P40958 whole entry, chain 2 of 2, further chain): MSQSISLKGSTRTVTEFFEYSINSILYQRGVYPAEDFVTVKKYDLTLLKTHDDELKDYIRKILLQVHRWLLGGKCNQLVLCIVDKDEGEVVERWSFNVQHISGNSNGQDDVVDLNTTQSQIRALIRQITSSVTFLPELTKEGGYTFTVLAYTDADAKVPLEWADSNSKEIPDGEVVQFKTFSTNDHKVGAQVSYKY

Kd: 2.2 µM
B1: Mps1-phosphorylated scBub1_(449–530) fragment (domain or fragment)
chain: SRSPTVTAFSKDAINEVFSMFNQHYSTPGALLDGDDTTTSKFNVFENFTQEFTAKNIEDLTEVKDPKQETVSQQTTSTNETN
modifications: phosphothreonine at 453, phosphothreonine at 455, phosphoserine at 458 (mass spectrometry; co-expressed with scMps1)
